# Measurements published in the DeepSol protein solubility set.
# Test: soluble on expression in E. coli; label from the status in PepcDB or PDB records
row,Sequence,soluble on expression in E. coli
1,MSLGVSFNIMCPNSSIYSDEKSRVLVDKTKSGKVRPWREKKIANVDYFELLHILEFKKAERVKDCAEILEYKQNRETGERKLYRVWFCKSRLCPMCNWRRAMKHGIQSQKVVAEVIKQKPTVRWLFLTLTVKNVYDGEELNKSLSDMAQGFRRMMQYKKINKNLVGFMRATEVTINNKDNSYNQHMHVLVCVEPTYFKNTENYVNQKQWIQFWKKAMKLDYDPNVKVQMIRPKNKYKSDIQSAIDETAKYPVKDTDFMTDDEEKNLKRLSDLEEGLHRKRLISYGGLLKEIHKKLNLDDTEEGDLIHTDDDEKADEDGFSIIAMWNWERKNYFIKEEGHHHHHH,soluble
2,MGSDKIHHHHHHMTVRQIIQLAGTLDIPGLPQLDVTQDEISIANLTPLKLWAATAGWGASADDLGFEDRVTGNKIPLNGSATSSRLVNAFDGSQALSQGTAGAVLKDDSFSTAGSFTIAMNLCAINDELTCAPASSSVLPGSGQSYWFLASSAGKFRIGTTSLSTQFADYLGPLLSRTAWLRLILKYDRAVGTMTLYVNGVQQAKLTNDALKTLSLAPGLVMGGLVTTTATPTSPPCLMRSPMGFNSALSDSELALVDRYLSKTLY,not soluble
3,MSLKPLAYRMRPTKIEDIIGQQHLVAEDKIIGRMVQAKHLSSMILYGPPGIGKTSIATAIAGSTSIAFRKLNAVINNKKDMEIVAQEAKMSGQVILILDEVHRLDKGKQDFLLPYLENGMIILIGATTANPYHAINPAIRSRTQIFELEPLTPELIKQALERALHDEHRGLGTYSVSIDDQAMEHFAHGCGGDVRSALNALELAVLSTKESADGEIHITLETAEECLQKKSFSHDKDGDAHYDVLSAFQKSIRGSDANAALHYLARLIEAGDLESIARRLLVIAYEDIGLASPQAGPRVLNAIQTAERVGFPEARIPLANAVIELCLSPKSNSAILAIDEALADIRAGKIGDVPKHLKDAHYKGAQELGRGIDYKYPHNYDNGWVEQQYLPDPLKNKQYYKPKQTGKFESALKQVYDKLMKGIITITTDPNSSSVDKLAAALEHHHHHH,soluble
4,MVKETEYYDILGIKPEATPTEIKKAYRRKAMETHPDKHPDDPDAQAKFQAVGEAYQVLSDPGLRSKYDQFGKEDAVPQQGFEDASEYFT,not soluble
5,SKVFNLDRGNTLSVSLFSGVTNSKELLNSMLDGSLKLEVSFLNASLIPGIFPLLAAAQKALISKSRDSLSTRTLHSELVYNYSGSKHITESLKRCGISENTTYILAARFNASPVEMEEVAKLINGKEIDLEELKTHANQANILKHYKITSQELGISSLGDAIVCRIAARDAL,soluble
6,MKALIVDDEPLARNELQYLLNLNDAIDEIEEAENIEETLEKLLYNTFDLIFLDINLMDESGIDLAQKINKMKRSPHIIFATAHEKFAVKAFELNATDYILKPFEKERINQAVNKVDMAKDKSKNKDKTITPKYIDYSDDERAQTHVLPIEVDERIHILNFTDIIALSVNNGITTIDTTKQSYETTETLNHYEKKLPSSLFIKIHRATIVNKEHIQTIEHWFNYTYQLTLTHEFKYQVSRSYMKTFKQQLGLQ,not soluble
7,MALLDFFLSRKKNTANIAKERLQIIVAERRRSDAEPHYLPQLRKDILEVICKYVQIDPEMVTVQLEQKDGDISILELNVTLPEAEELK,not soluble
8,MKNTLKLPLLIGVAGGTSCGKSTIVERIIENLNANAKQSGRQIDIVHLSLHSFYRELSAEEKILAREGKFNFDHPDQINFDLLAETLQNMIDGKTVEIPKYDMITSSMNGTVTVEPAKVIIIEGILLLYDERVRKLLSTKLFVEKNAESRLRNRLATYIRDYHRAPLSIIRQYTEFVKPAFEEFCRPTKKYADVIIPRGADNHVATDLIAKNLQVRFKRQNNALFDFEL,not soluble
9,MFSWLGTDDRRRKDPEVFQTVSEGLKKLYKSKLLPLEEHYRFHEFHSPALEDADFDNKPMVLLVGQYSTGKTTFIRYLLEQDFPGMRIGPEPTTDSFIAVMQGDMEGIIPGNALVVDPKKPFRKLNAFGNAFLNRFVCAQLPNPVLESISVIDTPGILSGEKQRISRGYDFAAVLEWFAERVDRIILLFDAHKLDISDEFSEVIKALKNHEDKMRVVLNKADQIETQQLMRVYGALMWSLGKIVNTPEVIRVYIGSFWSHPLLIPDNRKLFEAEEQDLFRDIQSLPRNAALRKLNDLIKRARLAKVHAYIISSLKKEMPSVFGKDNKKKELVNNLAEIYGRIEREHQISPGDFPNLKRMQDQLQAQDFSKFQPLKSKLLEVVDDMLAHDIAQLMVLVRQEESQRPIQMVKGGAFEGTLHGPFGHGYGEGAGEGIDDAEWVVARDKPMYDEIFYTLSPVDGKITGANAKKEMVRSKLPNSVLGKIWKLADIDKDGMLDDDEFALANHLIKVKLEGHELPTSCLPTSCPRPRGKLPSDGVGGHSDGQC,not soluble
10,MGSDKIHHHHHHMSQHVLLNSIEHKDVKVMTHRSAALGDNLWYSVTFPQEFRSVQAHYPIFFHKDTATGQFYAVALFGFQQNDNVFLSDQGWSASYVPLTVRRQPFLIGQQTVLEDGVERQQRVIHVDLDHPRVSETEGEALFLPYGGNTPLLDEVGEILEVIHHGLQDGQRFVDALIEHQLLESFTLDIELDNGQKNQMIGFYTINEETLAGLSADALAKLHQQGYLQAIYMTLASQSNVRDLLNLKNAQG,not soluble
11,MSLKIFDAHCDVLLQLWSAQGRKDFKHDSQLHITFEQLKRRKGSIQCFAIYVPETVAYENRFEVALQMVDIFYNEILSLPGVKFIQTKDDINMLKQDEIGAILTLEGCEAIGKDAMKIRLLYRLGVRSFGLTWNYANLLADGALETRGAGLTTSGKHVVQELNALHVWTDVSHLNERSFWDVIEIAKNPIASHSNCMKLCQHPRNLNDEQLKALIKRNGMIGVTFVPQFLTNEKQANVADIIRHIEYICSLGGENNIGFGSDFDGILETVVNVSAYRDYENVVNELCKHYAASTVERFLYDNFVEHISEGHHHHHH,not soluble
12,MAVTVSVAQATPAPFDMAARFKALYTREWRWRQAEFPGVVERSSQPQCVDHLPKVDLARQNKRTAYWQQVLEELKTIDPVRLSSKDQINYQVYRQQIEVLLDGQRFRSWEMSFNSDTAFWSDLSFSARDRFRTSEDYRCYLGVLADIPRYFNEQIVNLRQGLARGFAQPRVTLEGRDQVIAEVAGAAGEDNLFYIPFKQMPTMMSAGEQARLRAQVLHLIVDQVVPAYRHLLAFMREEYLPKARTVLAAESLPGGVAYYRAKIFEYTTLDLDPEAIYQIGVAEVAKLRQQMDQVIVDSGFKTSPDQQIFSAFLRYLRTDPQFYPKTPEALLKEAAWIAKRVDAKIGLYIGRLPRRRFAIEPVPADVAPYYTSGRGGPGIYFVNTYDLPSRPLYNLTALTLHESSPGHALQMPLAEEAKEVPEFRRYAFISAYGEGWAVYAEYLGQEMGLYDTPYDRFGYLSYQIWRACRLVIDTGIHHKGWTRAQAQAYLRDNTALSEREITTEVDRYISWPGQALSYYLGELKILELRHKAEAALGAKFDIRHFHDAVLGLGSVPLQVLEARIDRFIAE,not soluble
13,MAELSNCSKCGRLFVKLSTRDVCESCYQEEERQFERVYAFLRKRENRTATMAQVVEATGVEEKLIIKWIRAGRLQLVHFPNLGYPCDSCGAMIREGRLCAKCLGQLQADLRRAEGKKEKEARSRHATYYTQDHKER,not soluble
14,MGSDKIHHHHHHMKKMKIGTQNQAFFPENILEKFRYIKEMGFDGFEIDGKLLVNNIEEVKAAIKETGLPVTTACGGYDGWIGDFIEERRLNGLKQIERILEALAEVGGKGIVVPAAWGMFTFRLPPMTSPRSLDGDRKMVSDSLRVLEQVAARTGTVVYLEPLNRYQDHMINTLADARRYIVENDLKHVQIIGDFYHMNIEEDNLAQALHDNRDLLGHVHIADNHRYQPGSGTLDFHALFEQLRADNYQGYVVYEGRIRAEDPAQAYRDSLAWLRTC,not soluble
15,MFFIMNYHIDWLTIEQDFGFEIPESILAAIFDFGMVGIHLDTGEMQEGIKTGKYRHKGSFCDEVSIKVSGSVIKMEGNPSRWGKVENVLGFTDVDSCVACFNNILFSLNLPLFTRCTEVFYLQGKEGEKVKKFSNGAIIKRLDITTNKSVGKGNERTFLKALSQMRYRNSVGRLHTNHCTVDWLSEKGNANLIYPSCYIKHEEMKLHSYDKIKNKFGQQAKEFQYYQKVFDYCLENGVVRFEQKLKSRYLQRENLCYWGLSDFSKLNEIQDGFINMYKKLSVSEVKLETIAQQLVSQGVVDTLRKANTTAYYAMRWSSGEDLSLLPIATFKRHRAILRKIGIDIANPCDIEKFQAVRVISCEQIFVKPFKAPDFYQYPSNMPQLRLVALEHHHHHH,not soluble
16,MDIKVVKGSITEVDADVIVNPANSRGLMGGGVAVVIKRLGGEEIEREAVEKAPIPVGSAVLTTAGKLKFKGVIHAPTMEEPAMPSSEEKVRKATRAALELADKECFKIVAIPGMGTGVGGVPKEVAARAMVEEIRKFEPKCLEKVILVDIDEEMVEAWEKVLGLRLEHHHHHH,soluble
17,MSDEKKGGETEHINLKVLGQDNAVVQFKIKKHTPLRKLMNAYCDRAGLSMQVVRFRFDGQPINENDTPTSLEMEEGDTIEVYQQQTGG,soluble
18,MAMKDKLKNFFSMEDEEYEYEYIETERESHVEHEQKEKPAYNGNKPAGKQNVVSLQSVQKSSKVVLSEPRVYAEAQEIADHLKNRRADVVNLQRIQHDQAKRIVDFLSGTVYAIGGDIQRIGSDIFLCTPDNVDVSGTISELISEDEHQRWLEHHHHHH,not soluble
19,MSRVGVMVLGPAGAGKSTFCNSIISHMQTVGRRAHIVNLDPAAEATKYEFTIDIRDLISLDDVMEEMDLGPNGALIYCFEYLLKNLDWLDEEIGDFNDEYLIFDCPGQIELYTHIPVLPNIVRHLTQQLNFNLCATYLLEAPFVIDSSKFFSGALSAMSAMILLELPHINVLSKLDLIKGDINKKKLKRFLNPDAMLLMETEGMNQASNPKFLRLNQCIANLVDDFGMVQFLPLESNNPDSIETILSYVDDITQWAEGQEQKEPNDQIDVEE,soluble
20,MAESLLIKDIAIVTENEVIKNGYVGINDGKISTVSTERPKEPYSKEIQAPADSVLLPGMIDIHIHGGYGADTMDASFSTLDIMSSRLPEEGTTSFLATTITQEHGNISQALVNAREWKAAEESSLLGAELLGIHLEGPFVSPKRAGAQPKEWIRPSDVELFKKWQQEAGGLIKIVTLAPEEDQHFELIRHLKDESIIASMGHTDADSALLSDAAKAGASHMTHLYNAMSPFHHREPGVIGTALAHDGFVTELIADGIHSHPLAAKLAFLAKGSSKLILITDSMRAKGLKDGVYEFGGQSVTVRGRTALLSDGTLAGSILKMNEGARHMREFTNCSWTDIANITSENAAKQLGIFDRKGSVTVGKDADLVIVSSDCEVILTICRGNIAFISKEADQI,soluble
21,MSQSLFSQPLNVINVGIAMFSDDLKKQHVEVTQLDWTPPGQGNMQVVQALDNIADSPLADKIAAANQQALERIIQSHPVLIGFDQAINVVPGMTAKTILHAGPPITWEKMCGAMKGAVTGALVFEGLAKDLDEAAELAASGEITFSPCHEHDCVGSMAGVTSASMFMHIVKNKTYGNIAYTNMSEQMAKILRMGANDQSVIDRLNWMRDVQGPILRDAMKIIGEIDLRLMLAQALHMGDECHNRNNAGTTLLIQALTPGIIQAGYSVEQQREVFEFVASSDYFSGPTWMAMCKAAMDAAHGIEYSTVVTTMARNGVEFGLRVSGLPGQWFTGPAQQVIGPMFAGYKPEDSGLDIGDSAITETYGIGGFAMATAPAIVALVGGTVEEAIDFSRQMREITLGENPNVTIPLLGFMGVPSAIDITRVGSSGILPVINTAIAHKDAGVGMIGAGIVHPPFACFEKAILGWCERYGV,soluble
22,RILYRHSNAMQHEYNQMMQSIDERKQYQVGKIKMGTGDAWWPLFVKQALNEHLTKQPSASTHVEFGNHLGLMDSLINEQIEFFIGHEIVGLSSKCDVTFIPLFQTVDAYFVSSNHPLLGKTVTEEMLHEYPALSVTYDAKKFAHVIDNPIPKQNERERQQLDDRPTYEVDSLLASIDVLKESVAVMSYTRHLQSYLESFGLRCLTMENEPNPGTVGIYRHRRETSESHLDLIAGITQRAKLLN,not soluble
